Experimental data: article PMC2841223 (Journal of structural biology, 2009)
Like-named read-outs stand apart in the source and are kept apart here. Each block holds one binder with its values, some of them ahead of it.

B1: ILK ankyrin repeat domain (ILK 1-174, from thrombin-cleaved GST-ILK 1-192) (domain or fragment, human, UniProt Q13418 1-174, looked up)
chain: MDDIFTQCREGNAVAVRLWLDNTENDLNQGDDHGFSPLHWACREGRSAVVEMLIMRGARINVMNRGDDTPLHLAASHGHRDIVQKLLQYKADINAVNEHGNVPLHYACFWGQDQVAEDLVANGALVSICNKYGEMPVDKAKAPLRELLRERAEKMGQNLNRIPYKDTFWKGTTR
B4: PINCH2 LIM1 domain (PINCH2 6-68), His tag removed (domain or fragment, human, UniProt Q7Z4I7-3 6-68, looked up)
chain: ANAVCQRCQARFSPAERIVNSNGELYHEHCFVCAQCFRPFPEGLFYEFEGRKYCEHDFQMLFA

How the values were obtained:
[1] = biological target: B4; experiment: crystal structure
[2] = biological target: B1; experiment: pull-down
[3] = biological target: T1, ILK ankyrin repeat domain W110A (human, UniProt Q13418 1-174, W110A); experiment: pull-down
T1 sequence (looked up): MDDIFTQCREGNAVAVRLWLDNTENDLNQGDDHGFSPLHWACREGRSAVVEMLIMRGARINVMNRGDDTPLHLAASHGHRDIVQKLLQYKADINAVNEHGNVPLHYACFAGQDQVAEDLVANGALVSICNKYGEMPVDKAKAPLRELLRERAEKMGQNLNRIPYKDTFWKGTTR

[4] = biological target: B1; experiment: pull-down; remark: listed apart in the source
[5] = biological target: B1; experiment: pull-down; remark: listed apart in the source

Binder: B1
stoichiometry N [1]: 1

binding result [2]: binds
B2: His-tagged PINCH2 LIM1 R12A (domain or fragment, human, UniProt Q7Z4I7-3 6-68, looked up)
chain: ANAVCQACQARFSPAERIVNSNGELYHEHCFVCAQCFRPFPEGLFYEFEGRKYCEHDFQMLFA

binding result [3]: binds
B3: His-tagged PINCH2 LIM1 (PINCH2 6-68) (domain or fragment, human, UniProt Q7Z4I7-3 6-68, looked up)
chain: ANAVCQRCQARFSPAERIVNSNGELYHEHCFVCAQCFRPFPEGLFYEFEGRKYCEHDFQMLFA

Binder: B4
IC50 [4]: 2300 nM
IC50 [5]: 4400 nM

IC50 [4]: 2900 nM
B5: soluble PINCH1 LIM1 domain, His tag removed (domain or fragment)
chain: ASATCERCKGGFAPAEKIVNSNGELYHEQCFVCAQCFQQFPEGLFYEFEGRKYCEHDFQMLFA
